This note sets out measurements from PMC6336718.

Test [1] has as its target Bacillus anthracis zinc uptake regulator protein (BaZur) (Bacillus anthracis (Sterne 34F2)). The experiment in a line: native gel or EMSA. (In general: In EMSA bound probe runs differently from free probe, usually more slowly.)
Test [2] shares this target. The test can be described thus: SEC; […] (50 mM Tris HCl pH 8.0, 150 mM NaCl, 5% glycerol), […].

As to “Bacillus anthracis zinc uptake regulator protein (BaZur) (natural protein)”, the stoichiometry N in test [1] and in test [2] was 2 in each case.

Usually stoichiometry N stands for a count of units in the complex or per binding partner.
